Positions of bridges follow the written chain, without caps; N, C: chain ends. Non-standard residues stand in square brackets, D forms with d. No end group written: not given here. Sar = CNCC(=O)O
B1: phage carrying peptide HK2p02 as part of pIII protein (peptide)
chain: AARRPFPAPS
notes: also called phage p02; HK2p02 phage clone (X10 library); not shown: pIII coat protein of fUSE-5 filamentous phage
B2: phage carrying peptide HK2p03 as part of pIII protein (peptide)
chain: PARRPFPVTA
notes: also called phage p03; HK2p03 phage clone (X10 library); not shown: pIII coat protein of fUSE-5 filamentous phage
B3: phage carrying peptide HK2p04 as part of pIII protein (peptide)
chain: CFRQGCWVIT
modifications: disulfide (positions not given here); also: displayed as fusion to phage pIII protein
notes: also called phage p04; HK2p04 phage clone (X10 library); not shown: pIII coat protein of fUSE-5 filamentous phage
B4: phage carrying peptide HK2p06 as part of pIII protein (peptide)
chain: CYRMPTCMQRD
modifications: disulfide (positions not given here); also: displayed as fusion to phage pIII protein
notes: also called phage p06; HK2p06 phage clone (X11 library); not shown: pIII coat protein of fUSE-5 filamentous phage
B5: synthetic peptide HK2p06 (CYRMPTCMQRD) (peptide)
peptide: CYRMPTCMQRD
modifications: disulfide 1-7 (inferred)
notes: Two Cys residues, said to indicate a cyclic structure

Each binder was assayed against T1, recombinant wild-type (wt) human kallikrein 2 (human, UniProt P20151 25-261) (assay: phage display selection on hK2 captured by MAb 5E4, four rounds).
T1 construct: Enzymatically active hK2; in phage assays captured on wells by MAb 5E4, in enzyme assays in solution; also called hK2; HK2
Description: The phage display libraries were constructed in fUSE-5-phage as previously described (Koivunen et al. 1994). We screened libraries with the structures CX₇C, CX₈C, X₉, X₁₀, X₁₁, CX₃CX₃CX₃C, CX₈, CX₉, X₂CX₁₁C, where C stands for cysteine and X for any of the randomly occurring amino acids. Screening was performed according to Koivunen et al. (Koivunen et al. 1994). We screened each peptide library against hK2, which was captured by MAb 5E4 coated into microtiter wells (Wu, Leinonen et al. 2000). MAb 5E4 binds PSA and hK2 in an equimolar manner and reacts with an epitope which is remote from the active site of these enzymes (Stenman et al. 1999), (Leinonen, Wu et al. 2002). Twenty four ng of hK2 was incubated in antibody-coated wells for 30 minutes at 37° C. in Tris/NaCl buffer followed by washing of unbound hK2. An aliquot of phage libraries containing 10¹⁰-10¹¹ transducing units was added into the microtiter wells in 100 μL of 1% BSA in TBS, which was composed of 0.05 mol/L Tris buffer (pH 7.7) containing 0.154 mol/L NaCl and 8 mmol/L NaN3. Incubation took place at 4° C. with gentle shaking for 16-24 hours in the first round and for 1 hour for the following three rounds. The phages were removed and wells were washed with TBS containing 0.5% Tween 20. For elution of the bound phage 0.1 M Glycine-HCl, pH 2.2 containing 0.1% BSA was added. The eluted phage suspension was neutralized with 1 M Tris buffer, pH 9.0, amplified by infection of Escherichia coli K91 cells and purified by polyethylene glycol precipitation (Wu, Leinonen et al. 2000). After four rounds of selection and amplification single stranded DNA from individual phage clones was prepared. The peptide sequences were determined after amplification by PCR (Koivunen et al. 2001). The relevant part of the viral DNA was sequenced with an ABI 310 Genetic analyzer and Dye Terminator Cycle Sequencing Core Kit (PE Applied Biosystems, Foster City, Calif., USA) using the primer 5′-TAATACGACTCACTATAGGGCAAGCTGATAAACCGATACAAT-3′ (SEQ ID NO: 130).
B1: binds.
B2: binds.
B3: binds.
B4: binds.

Each binder was assayed against T1, recombinant wild-type (wt) human … (assay: Lineweaver-Burke plots; cleavage of 0-400 µM S-2302 by 0.2 µM hK2 at 4 µM peptide).
For ARFKVWWAAG (S1A variant of HK2p01) [ARFKVWWAAG (SEQ ID NO:56)], the Ki was 1410 nM.

The binders below were run against T1, recombinant wild-type (wt) human … (assay: competition phage IFMA on hK2 captured by MAb 5E4; 5 µM synthetic peptide).
Description: The phage IFMA was performed essentially as described (Wu, Leinonen et al. 2000). In this assay, 50 ng of hK2 in 200 μL of assay buffer was captured onto wells coated with MAb 5E4. After washing, 2.5 μL of phage (10⁸-10⁹ infectious particles) and 200 μL assay buffer were added to wells. After incubation for 1 h, the wells were washed and filled with 200 μL of assay buffer containing 100 ng Eu-labeled anti-phage polyclonal antibody recognizing the M13 coat protein of the phage. After incubation for 60 min, the wells were washed 4 times, and enhancement solution (Perkin Elmer-Wallac) was added. The fluorescence was quantified with a Victor fluorometer in time resolved mode (Perkin Elmer-Wallac).
The relative binding sites of the peptides on hK2 were mapped by competition experiments with chemically synthesized and phage peptides. The protocol was based on the IFMA method described above except that phages and the synthetic peptides were reacted together with hK2. Briefly, each of the synthetic peptides at 5 μM concentration was added into the wells in which hK2 had been captured by MAb 5E4. After incubation for 30 min each phage was added. After 1 h incubation, the wells were washed and the assay was as described above for IFMA.
B5: binds.

What follows are binders tested against T1, recombinant wild-type (wt) human … (assay: cell-based or functional assay).
For ARFKVWWAAG (S1A variant of HK2p01) [ARFKVWWAAG (SEQ ID NO:56)], the inhibition was 94%.
AAARRPFPG [AAARRPFPG (SEQ ID NO:48)] was tested, and the inhibition was 37%.
Binder GAARRPFPAPG [GAARRPFPAPG (SEQ ID NO:51)] has an inhibition of 69%.
GAARR[Sar]FPAPG [GAARR-Sar-FPAPG (SEQ ID NO:52)] gave an inhibition of 0%.
In the case of GAARRPF[Sar]APG [GAARRPF-Sar-APG (SEQ ID NO:53)], the inhibition is reported as 24%.
Work on GAARR[Sar]F[Sar]APG [GAARR-Sar-F-Sar-APG (SEQ ID NO:54)] yielded an inhibition of 0%.
Work on SRAKVWWAAG-OH [SRAKVWWAAG (SEQ ID NO:58)] yielded an inhibition of 0%.
Binder SRFAVWWAAG-OH [SRFAVWWAAG (SEQ ID NO:59)] has an inhibition of 0%.
Work on SRFKAWWAAG-OH [SRFKAWWAAG (SEQ ID NO:60)] yielded an inhibition of 39%.
For SRFKVAWAAG-OH [SRFKVAWAAG (SEQ ID NO:61)], the inhibition was 10%.
SRFKVWAAAG-OH [SRFKVWAAAG (SEQ ID NO:62)] showed an inhibition of 30%.

Biological target: T1, recombinant wild-type (wt) human …
Assay: cell-based or functional assay
Remark: another data set of the same source
SRFKVWWAAG [synthetic peptide HK2p01 (SRFKVWWAAG)] was tested, and the “IC50 for hK2 inhibition (cleavage of S-2302)” value was 3400 nM.
In the case of ARFKVWWAAG (S1A variant of HK2p01) [ARFKVWWAAG (SEQ ID NO:56)], the “IC50 for hK2 inhibition (cleavage of S-2302)” value is reported as 2200 nM.
